Legend:
[1] = biological target: T1, rHuman P-Cadherin/Fc Chimera, CF (R&D Systems Cat#861-PC) (human, UniProt P22223 108-654); assay: MSD multispot ECL, antigen spotted on plate; Fab 0.00797 uM; blank spot 364
T1 construct: Bought recombinant protein; Fc part of the bought chimera not given

[2] = biological target: T2, rHuman Notch-1/Fc Chimera, CF (R&D Systems Cat#3647-TK) (human, UniProt P46531 19-526); assay: as above
T2 construct: Bought recombinant protein; Fc part of the bought chimera not given

[3] = biological target: T3, rHuman CD44/Fc Chimera, CF (R&D Systems Cat#3660-CD) (human, UniProt P16070 21-220); assay: MSD Multispot ECL, antigen spotted on plate, Fab at 60 nM; blank spot 237
T3 construct: Bought Fc chimera; Fc part of the bought chimera not given

[4] = biological target: T4, rHuman Notch-1/Fc Chimera, CF (R&D Systems Cat#3647-TK) (human, UniProt P46531 19-526); assay: as above
T4 construct: Bought Fc chimera; Fc part of the bought chimera not given

[5] = biological target: T5, Recombinant Human DLL4 (R&D Systems Cat#1506-D4/CF) (human, UniProt Q9NR61 27-524); assay: as above
T5 construct: Bought recombinant protein; also called rHuman DLL4; delta-like protein 4

[6] = biological target: T6, rHuman Erythropoietin R/Fc Chimera, CF (R&D Systems Cat#963-ER) (human, UniProt P19235 25-250); assay: as above
T6 construct: Bought Fc chimera; also called EPO R/Fc; Epo R; Fc part of the bought chimera not given
T6 sequence (looked up): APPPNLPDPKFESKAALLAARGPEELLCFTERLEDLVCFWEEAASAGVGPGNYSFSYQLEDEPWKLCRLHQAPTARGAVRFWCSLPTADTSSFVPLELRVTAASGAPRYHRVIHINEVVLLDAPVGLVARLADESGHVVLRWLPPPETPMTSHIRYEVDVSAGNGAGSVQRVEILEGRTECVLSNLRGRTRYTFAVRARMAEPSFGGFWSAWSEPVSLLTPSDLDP

[7] = biological target: T7, rHuman P-Cadherin/Fc Chimera, CF (R&D Systems Cat#861-PC) (human, UniProt P22223 108-654); assay: as above
T7 construct: Bought Fc chimera; Fc part of the bought chimera not given

[8] = biological target: T3, rHuman CD44/Fc Chimera, CF (R&D Systems …); assay: MSD Multispot ECL, antigen spotted on plate, Fab at 3.8 nM; blank spot 198
[9] = biological target: T4, rHuman Notch-1/Fc Chimera, CF (R&D …); assay: as above
[10] = biological target: T5, Recombinant Human DLL4 (R&D Systems …); assay: as above
[11] = biological target: T6, rHuman Erythropoietin R/Fc Chimera, CF …; assay: as above
[12] = biological target: T7, rHuman P-Cadherin/Fc Chimera, CF (R&D …); assay: as above
[13] = biological target: T8, rHuman CD44/Fc Chimera, CF (R&D Systems Cat#3660-CD) (human, UniProt P16070 21-220); assay: MSD multispot ECL, antigen spotted, Fab 9.3 nM; blank spot 287
T8 construct: Bought reagent

[14] = biological target: T9, rHuman Notch-1/Fc Chimera, CF (R&D Systems Cat#3647-TK) (human, UniProt P46531 19-526); assay: Multispot ECL (MSD) titration; antigen spotted on plate; Fab 232.5 nM; blank spot 460
T9 construct: Bought Fc chimera; Fc part of the bought chimera not given

[15] = biological target: T10, Recombinant Human DLL4 (R&D Systems Cat#1506-D4/CF) (human, UniProt Q9NR61 27-524); assay: as above
T10 construct: Bought recombinant protein; also called delta-like protein 4; rHuman DLL4

[16] = biological target: T11, rHuman P-Cadherin/Fc Chimera, CF (R&D Systems Cat#861-PC) (human, UniProt P22223 108-654); assay: as above
T11 construct: Bought Fc chimera; Fc part of the bought chimera not given

[17] = biological target: T12, rHuman ErbB2/Fc Chimera, CF (R&D Systems Cat#1129-ER) (human, UniProt P04626 23-652); assay: as above
T12 construct: Bought Fc chimera; also called human epidermal growth factor 2 receptor; Fc part of the bought chimera not given

[18] = biological target: T13, rHuman CD44/Fc Chimera, CF (R&D Systems Cat#3660-CD) (human, UniProt P16070 21-220); assay: as above
T13 construct: Bought Fc chimera; Fc part of the bought chimera not given

[19] = biological target: T14, rHuman Erythropoietin R/Fc Chimera, CF (R&D Systems Cat#963-ER) (human, UniProt P19235 25-250); assay: as above
T14 construct: Bought Fc chimera; also called EPO R/Fc; EPO R; Fc part of the bought chimera not given
T14 sequence (looked up): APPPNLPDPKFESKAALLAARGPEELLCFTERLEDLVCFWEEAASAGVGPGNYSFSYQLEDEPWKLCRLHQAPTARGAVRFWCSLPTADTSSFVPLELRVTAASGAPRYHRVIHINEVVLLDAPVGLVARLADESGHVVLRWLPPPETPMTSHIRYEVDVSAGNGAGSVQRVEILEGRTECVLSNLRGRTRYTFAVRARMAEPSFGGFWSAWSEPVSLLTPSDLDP

[20] = biological target: T15, rHuman IGF-1 sR (IGF-1 sR), CF (R&D Systems Cat#391-GR) (human, UniProt P08069 31-932); assay: as above
T15 construct: Bought soluble receptor; also called insulin-like growth factor-1 soluble receptor

B1: Fab VH4-34_IGHD7-27*01_IGHJ4*01 & L5_IGKJ1*01 (Fab, V domains shown)
VH: QVQLQQWGAGLLKPSETLSLTCAVYGGSFSGYYWSWIRQPPGKGLEWIGEINHSGSTNYNPSLKSRVTISVDTSKNQFSLKLSSVTAADTAVYYCARANWGDYFDYWGQGTLVTVSS
VL: DIQMTQSPSSVSASVGDRVTITCRASQGISSWLAWYQQKPGKAPKLLIYAASSLQSGVPSRFSGSGSGTDFTLTISSLQPEDFATYYCQQANSFPPWTFGQGTKVEIKR
notes: Germline library Fab expressed in E. coli; VH was cloned into Plasmid A, which adds CH1 with His6 and Flag tags
In the case of B1, the ECL signal [1] is reported as 502 and the ECL signal [2] is reported as 654.

B2: Fab VH6-1_IGHD3-3*01_IGHJ4*01 & V4-3_IGLJ4*01 (Fab, V domains shown)
VH: QVQLQQSGPGLVKPSQTLSLTCAISGDSVSSNSAAWNWIRQSPSRGLEWLGRTYYRSKWYNDYAVSVKSRITINPDTSKNQFSLQLNSVTPEDTAVYYCAREYYDFWSGYYTDYFDYWGQGTLVTVSS
VL: QPVLTQPTSLSASPGASARLTCTLRSGINLGSYRIFWYQQKPESPPRYLLSYYSDSSKHQGSGVPSRFSGSKDASSNAGILVISGLQSEDEADYYCMIWHSSASFVFGGGTQLIIL
notes: Tested as a purified germline Fab made in E. coli; The VH was cloned into plasmid A (CH1 constant region, His6 and Flag tags) and the lambda VL into plasmid E (lambda CL)
Work on B2 yielded an ECL signal [3] of 434, an ECL signal [4] of 415 and an ECL signal [5] of 875. For the same binder, the ECL signal [6] was 423, the ECL signal [7] was 372 and the ECL signal [8] was 419. The ECL signal [9] was 383, the ECL signal [10] was 462 and the ECL signal [11] was 407. For the same binder, the ECL signal [12] was 281.

B3: Fab VH1-46_IGHD6-6*01_IGHJ1*01 & L6_IGKJ1*01 (Fab, V domains shown)
VH: QVQLVQSGAEVKKPGASVKVSCKASGYTFTSYYMHWVRQAPGQGLEWMGIINPSGGSTSYAQKFQGRVTMTRDTSTSTVYMELSSLRSEDTAVYYCAREEYSSSSAEYFQHWGQGTLVTVSS
VL: not shown
notes: Only variable domains are tied to the molecule; Tested as a Fab made in E. coli: heavy chain from Plasmid A (CH1 constant region, His6 and Flag tags), kappa light chain from Plasmid C (kappa CL); also called parent Hit Fab against DLL4; VH1-46_IGHD6-6*01_IGHJ1*01 & L6_IGKJ1*01 (parental)
For B3, the ECL signal [13] was 396 ECL signal.

B4: Fab VH1-46_IGHD6-13*01_IGHJ4*01 & O1_IGKJ1*01 (Fab, V domains shown)
VH: QVQLVQSGAEVKKPGASVKVSCKASGYTFTSYYMHWVRQAPGQGLEWMGIINPSGGSTSYAQKFQGRVTMTRDTSTSTVYMELSSLRSEDTAVYYCAREGYSSSWYDYFDYWGQGTLVTVSS
VL: DIVMTQTPLSLPVTPGEPASISCRSSQSLLDSDDGNTYLDWYLQKPGQSPQLLIYTLSYRASGVPDRFSGSGSGTDFTLKISRVEAEDVGVYYCMQRIEFPSWTFGQGTKVEIKR
notes: Germline library Fab expressed in E. coli; VH was cloned into Plasmid A (CH1 constant region, His6 and Flag tags); The kappa VL was cloned into Plasmid C (kappa CL)
In the case of B4, the ECL signal [14] is reported as 778, the ECL signal [15] is reported as 3590 and the ECL signal [16] is reported as 655. For the same binder, the ECL signal [17] was 779, the ECL signal [18] was 607 and the ECL signal [19] was 1470. It also gave an ECL signal [20] of 569.
